# In US20240174727A1, “LONG-ACTING NATRIURETIC PEPTIDES AND USES THEREOF” (Eli Lilly and Company, priority 2022, published 2024):
# Numbered stars: 1 amine (or outer) side, 2 acyl side, 3 side chain; on linkers, the order of the positions; unused ones are H or OH. Bridge positions count the residues as written; N and C are the ends. Square brackets hold non-standard residues; d marks the D form. * marks the point of attachment. C20 diacid = O=C(O)CCCCCCCCCCCCCCCCCCC(=O)*; γGlu = O=C(O)[C@H](CCC(=O)[*:2])N[*:1]; 4Pal = N[C@@H](Cc1ccncc1)C(=O)O
# Legend:
# [1] = biological target: T1, rat NPRA (rat, UniProt P18910 29-1057); assay: cell-based or functional assay
# T1 sequence (looked up): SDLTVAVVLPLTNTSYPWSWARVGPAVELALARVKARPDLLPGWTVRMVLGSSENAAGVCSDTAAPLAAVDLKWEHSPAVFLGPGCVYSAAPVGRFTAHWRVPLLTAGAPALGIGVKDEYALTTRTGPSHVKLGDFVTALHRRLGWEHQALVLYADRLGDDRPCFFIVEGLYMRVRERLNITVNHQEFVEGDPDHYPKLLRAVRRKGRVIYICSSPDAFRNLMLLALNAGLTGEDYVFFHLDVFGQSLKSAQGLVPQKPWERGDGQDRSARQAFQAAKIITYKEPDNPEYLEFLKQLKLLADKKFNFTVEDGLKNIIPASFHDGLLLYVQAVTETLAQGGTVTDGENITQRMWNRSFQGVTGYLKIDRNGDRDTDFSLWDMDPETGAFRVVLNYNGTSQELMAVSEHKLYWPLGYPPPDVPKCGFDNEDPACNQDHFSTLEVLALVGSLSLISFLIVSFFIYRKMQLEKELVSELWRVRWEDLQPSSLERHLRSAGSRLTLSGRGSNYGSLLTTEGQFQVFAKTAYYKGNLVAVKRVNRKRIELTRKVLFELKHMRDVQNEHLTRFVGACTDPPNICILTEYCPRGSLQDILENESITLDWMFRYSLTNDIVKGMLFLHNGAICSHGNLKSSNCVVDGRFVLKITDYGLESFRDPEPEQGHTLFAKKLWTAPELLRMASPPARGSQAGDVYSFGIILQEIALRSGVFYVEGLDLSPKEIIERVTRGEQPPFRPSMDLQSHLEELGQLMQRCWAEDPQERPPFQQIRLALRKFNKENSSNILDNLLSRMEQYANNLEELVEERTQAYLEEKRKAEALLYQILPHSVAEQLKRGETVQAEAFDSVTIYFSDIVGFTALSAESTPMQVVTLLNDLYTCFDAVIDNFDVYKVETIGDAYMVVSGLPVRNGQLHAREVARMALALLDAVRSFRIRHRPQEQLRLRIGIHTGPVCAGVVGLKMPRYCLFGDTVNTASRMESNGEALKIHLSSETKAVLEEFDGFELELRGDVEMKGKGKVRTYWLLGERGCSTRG
# [2] = biological target: T2, human NPRA (human, UniProt P16066 33-1061); assay: cell-based or functional assay
# T2 sequence (looked up): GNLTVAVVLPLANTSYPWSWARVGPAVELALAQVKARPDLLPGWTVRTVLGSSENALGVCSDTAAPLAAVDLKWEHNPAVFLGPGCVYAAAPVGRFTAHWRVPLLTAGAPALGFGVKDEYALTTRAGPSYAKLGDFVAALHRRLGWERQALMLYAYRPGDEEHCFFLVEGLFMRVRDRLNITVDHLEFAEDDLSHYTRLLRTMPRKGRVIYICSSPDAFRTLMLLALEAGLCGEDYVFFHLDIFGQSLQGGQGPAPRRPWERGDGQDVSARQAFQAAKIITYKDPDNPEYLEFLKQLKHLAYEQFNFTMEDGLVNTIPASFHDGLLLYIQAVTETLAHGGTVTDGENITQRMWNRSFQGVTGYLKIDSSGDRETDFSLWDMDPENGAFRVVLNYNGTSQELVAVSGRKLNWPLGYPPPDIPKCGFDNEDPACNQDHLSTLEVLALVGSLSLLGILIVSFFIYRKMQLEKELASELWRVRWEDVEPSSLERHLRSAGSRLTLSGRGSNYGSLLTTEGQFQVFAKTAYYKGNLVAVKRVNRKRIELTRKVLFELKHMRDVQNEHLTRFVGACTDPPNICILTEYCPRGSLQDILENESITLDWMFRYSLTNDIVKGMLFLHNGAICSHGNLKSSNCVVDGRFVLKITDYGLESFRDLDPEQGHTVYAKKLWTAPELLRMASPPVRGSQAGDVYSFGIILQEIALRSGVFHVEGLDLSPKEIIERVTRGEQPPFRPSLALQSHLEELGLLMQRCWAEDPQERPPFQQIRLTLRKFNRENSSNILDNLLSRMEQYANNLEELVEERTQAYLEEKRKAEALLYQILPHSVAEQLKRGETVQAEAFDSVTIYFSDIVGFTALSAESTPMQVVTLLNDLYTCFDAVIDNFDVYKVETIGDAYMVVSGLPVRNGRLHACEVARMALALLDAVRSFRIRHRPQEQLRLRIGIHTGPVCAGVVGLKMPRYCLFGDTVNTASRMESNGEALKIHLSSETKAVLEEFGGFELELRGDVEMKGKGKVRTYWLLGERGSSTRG
Binder,"cGMP Assay (EC50, pM) w/BSA [1] [pM]","cGMP Assay (EC50, pM) w/Casein [1] [pM]","cGMP Assay (EC50, pM) w/BSA [2] [pM]","cGMP Assay (EC50, pM) w/Casein [2] [pM]"
{C20 diacid}-[γGlu]EKEKEKGS[4Pal]RRSSCFGGRIDRIGHQSGLGCPSFR[4Pal]-NH2 (disulfide 15-31; SMILES CC[C@H](C)[C@@H]1NC(=O)[C@H](CCCNC(=N)N)NC(=O)[C@H](CC(=O)O)NC(=O)[C@H]([C@@H](C)CC)NC(=O)[C@H](CCCNC(=N)N)NC(=O)CNC(=O)CNC(=O)[C@H](Cc2ccccc2)NC(=O)[C@@H](NC(=O)[C@H](CO)NC(=O)[C@H](CO)NC(=O)[C@H](CCCNC(=N)N)NC(=O)[C@H](CCCNC(=N)N)NC(=O)[C@H](Cc2ccncc2)NC(=O)[C@H](CO)NC(=O)CNC(=O)[C@H](CCCCN)NC(=O)[C@H](CCC(=O)O)NC(=O)[C@H](CCCCN)NC(=O)[C@H](CCC(=O)O)NC(=O)[C@H](CCCCN)NC(=O)[C@H](CCC(=O)O)NC(=O)CC[C@H](NC(=O)CCCCCCCCCCCCCCCCCCC(=O)O)C(=O)O)CSSC[C@@H](C(=O)N2CCC[C@H]2C(=O)N[C@@H](CO)C(=O)N[C@@H](Cc2ccccc2)C(=O)N[C@@H](CCCNC(=N)N)C(=O)N[C@@H](Cc2ccncc2)C(N)=O)NC(=O)CNC(=O)[C@H](CC(C)C)NC(=O)CNC(=O)[C@H](CO)NC(=O)[C@H](CCC(N)=O)NC(=O)[C@H](Cc2c[nH]cn2)NC(=O)CNC1=O) [Example 24],66100,703,21000,560
XEKEKEKGEKXRSSCFGKRIDRIGHQSGLGCPSFRHGGKSSGAPPPS (HOOC-(CH2)18-CO-(γGlu)-EKEKEKGEK-βAla-RSS[CFGKRIDRIGHQSGLGC]PSFRHGGKSSGAPPPS-NH2; thioacetal linkage between the bracketed Cys) [Example 85],–,–,–,361
XEKEKEKGEKPRSSCFGKRIDRIGHYSGLGCPSFRHGSPSSGAPPPS (HOOC-(CH2)18-CO-(γGlu)-EKEKEKGEKPRSS[CFGKRIDRIGHYSGLGC]PSFRHGSPSSGAPPPS-NH2; thioacetal linkage between the bracketed Cys) [Example 5],276000,1130,–,–
XEKEKEKGSXRRSSCFGGRIDRIGHQSGLGCPSFRHGPSSGAPPPS (HOOC-(CH2)18-CO-(γGlu)-EKEKEKGS-4Pal-RRSS[CFGGRIDRIGHQSGLGC]PSFRH-GPSSGAPPPS-NH2; disulfide linkage between the bracketed Cys) [Example 37],84600,–,–,–
{C20 diacid}-[γGlu]EKEKEKGS[4Pal]RRSSCFGGRIDRIGHQSGLGCPSFRHRITAREDKQGEA-NH2 (disulfide 15-31) [Example 26],119000,803,17800,682
{C20 diacid}-[γGlu]EKEKEKGS[4Pal]RRSSCFGGRIDRIGAQSGLGCPSFRH-NH2 (disulfide 15-31; SMILES CC[C@H](C)[C@@H]1NC(=O)[C@H](CCCNC(=N)N)NC(=O)[C@H](CC(=O)O)NC(=O)[C@H]([C@@H](C)CC)NC(=O)[C@H](CCCNC(=N)N)NC(=O)CNC(=O)CNC(=O)[C@H](Cc2ccccc2)NC(=O)[C@@H](NC(=O)[C@H](CO)NC(=O)[C@H](CO)NC(=O)[C@H](CCCNC(=N)N)NC(=O)[C@H](CCCNC(=N)N)NC(=O)[C@H](Cc2ccncc2)NC(=O)[C@H](CO)NC(=O)CNC(=O)[C@H](CCCCN)NC(=O)[C@H](CCC(=O)O)NC(=O)[C@H](CCCCN)NC(=O)[C@H](CCC(=O)O)NC(=O)[C@H](CCCCN)NC(=O)[C@H](CCC(=O)O)NC(=O)CC[C@H](NC(=O)CCCCCCCCCCCCCCCCCCC(=O)O)C(=O)O)CSSC[C@@H](C(=O)N2CCC[C@H]2C(=O)N[C@@H](CO)C(=O)N[C@@H](Cc2ccccc2)C(=O)N[C@@H](CCCNC(=N)N)C(=O)N[C@@H](Cc2c[nH]cn2)C(N)=O)NC(=O)CNC(=O)[C@H](CC(C)C)NC(=O)CNC(=O)[C@H](CO)NC(=O)[C@H](CCC(N)=O)NC(=O)[C@H](C)NC(=O)CNC1=O) [Example 22],192000,1690,25100,840
EKXRSSCFGGRIDRIGHYSGLGCPSFRHGGKSSGAPPPS (HOOC-(CH2)18-CO-(γGlu)-EKEKEKG-PEG12-EK-βAla-RSS[CFGGRIDRIGHYSGLGC]PSFRHGGKSSGAPPPS-NH2; thioacetal linkage between the bracketed Cys) [Example 77],–,–,–,1270
EKXRSSCFGGRIDRIGHYSGLGCPSFRHGGKSSGAPPPS (HOOC-(CH2)18-CO-(γGlu)-EKEKEKG-PEG24-EK-βAla-RSS[CFGGRIDRIGHYSGLGC]PSFRHGGKSSGAPPPS-NH2; thioacetal linkage between the bracketed Cys) [Example 78],–,–,19700,–
SXRRSSCFGGRIDRIGHYSGLGCPSFRHGGPPSXKPPPK (HOOC-(CH2)18-CO-(γGlu)-EKEKEKG-(AEEA)6-S-4Pal-RRSS[CFGGRIDRIGHYSGLGC]PSFRHGGPPS-Aib-KPPPK-NH2; thioacetal linkage between the bracketed Cys) [Example 97],–,–,–,720
{C20 diacid}-[γGlu]EKEKEKGS[4Pal]RRSSCFGGRIDRIGHQSGLGCPSFRHRITAREDKQGYA-NH2 (disulfide 15-31) [Example 25],57300,654,12000,436
XEKEKEKGSXKRSSCFGGKIDRIGHQSGLGCPSFRHGGPSSGAPPPS (HOOC-(CH2)18-CO-(γGlu)-EKEKEKGS-4Pal-KRSS[CFGGKIDRIGHQSGLGC]PSFRHGGPSSGAPPPS-NH2; disulfide linkage between the bracketed Cys) [Example 30],–,1130,–,–
XEKEKEKGSXKRSSCFGGKIDRIGXQSGLGCPSFRHGGPSSGAPPPS (HOOC-(CH2)18-CO-(γGlu)-EKEKEKGS-4Pal-KRSS[CFGGKIDRIG-Dap-QSGLGC]PSFRHGGPSSGAPPPS-NH2; disulfide linkage between the bracketed Cys) [Example 31],–,12200,–,–
XEKEKEKGEKPRSSCFGGRIDRIGHYSGLGCPSFRHGGPSSGAPPPS (HOOC-(CH2)18-CO-(γGlu)-EKEKEKGEKPRSS[CFGGRIDRIGHYSGLGC]PSFRHGGPSSGAPPPS-NH2; thioacetal linkage between the bracketed Cys) [Example 57],–,9500,–,–
XEKEKEKGEKERSSCFGGRIDRIGHYSGLGCPSFRHGGPSSGAPPPS (HOOC-(CH2)18-CO-(γGlu)-EKEKEKGEKERSS[CFGGRIDRIGHYSGLGC]PSFRHGGPSSGAPPPS-NH2; disulfide linkage between the bracketed Cys) [Example 49],–,–,–,299
XEKEKEKGSXRRSSCFGGRIDRIGHYSGLGCPSFRHGGPSSGAPPPS (HOOC-(CH2)18-CO-(γGlu)-EKEKEKGS-4Pal-RRSS[CFGGRIDRIGHYSGLGC]PSFRHGGPSSGAPPPS-NH2; disulfide linkage between the bracketed Cys) [Example 38],40500,–,–,–
XEKEKEKGEKPRSSCFGGRIDRIGHYSGLGCPSFRHGGPSSGAPPPS (HOOC-(CH2)18-CO-(γGlu)-EKEKEKGEKPRSS[CFGGRIDRIGHYSGLGC]PSFRHGGPSSGAPPPS-NH2; disulfide linkage between the bracketed Cys) [Example 55],–,493,–,–
XEKEKEKGEKGRSSCFGGKIDRIGHYSGLGCPSFRHGGPSSGAPPPS (HOOC-(CH2)18-CO-(γGlu)-EKEKEKGEKGRSS[CFGGKIDRIGHYSGLGC]PSFRHGGPSSGAPPPS-NH2; disulfide linkage between the bracketed Cys) [Example 45],–,–,25200,–
XEKEKEKGSXRRSSCFGGKIDRIGHQSGLGCPSFRHGGPSSGAPPPS (HOOC-(CH2)18-CO-(γGlu)-EKEKEKGS-4Pal-RRSS[CFGGKIDRIGHQSGLGC]PSFRHGGPSSGAPPPS-NH2; disulfide linkage between the bracketed Cys) [Example 36],–,–,–,118
XEKEKEKGRSSCFGGKIDRIGHYSGLGCPSFRHKGPSSGAPPPS (HOOC-(CH2)18-CO-(γGlu)-EKEKEKGRSS[CFGGKIDRIGHYSGLGC]PSFRHKGPSSGAPPPS-NH2; disulfide linkage between the bracketed Cys) [Example 47],–,–,–,299
XEKEKEKGEKGRSSCFGGRIDRIGHYSGLGCPSFRHKGGPSSGAPPPS (HOOC-(CH2)18-CO-(γGlu)-EKEKEKGEKGRSS[CFGGRIDRIGHYSGLGC]PSFRHKGGPSSGAPPPS-NH2; disulfide linkage between the bracketed Cys) [Example 50],–,–,–,614
